Reference: patent publication US20140287990A1 (published 2014)

T1: Pf MSP1-42, C-terminal fragment of the P. falciparum merozoite surface protein MSP1 (Plasmodium falciparum, UniProt Q8I0U8 1327-1699)
T1 construct: domain: MSP1-42; Immobilised on CM5 sensor chips
T1 sequence: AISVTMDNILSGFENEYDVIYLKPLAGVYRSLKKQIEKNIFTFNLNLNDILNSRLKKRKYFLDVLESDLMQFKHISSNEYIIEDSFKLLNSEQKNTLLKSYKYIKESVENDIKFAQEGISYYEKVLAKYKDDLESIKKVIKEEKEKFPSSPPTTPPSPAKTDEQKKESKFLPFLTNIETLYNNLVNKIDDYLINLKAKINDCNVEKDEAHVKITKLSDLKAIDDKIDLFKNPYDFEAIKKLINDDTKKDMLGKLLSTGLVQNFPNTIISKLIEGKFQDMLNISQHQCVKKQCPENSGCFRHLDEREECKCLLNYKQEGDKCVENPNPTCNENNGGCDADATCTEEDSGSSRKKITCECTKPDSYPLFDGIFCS

T2: ICAM-2 (UniProt P13598 25-223)
T2 sequence: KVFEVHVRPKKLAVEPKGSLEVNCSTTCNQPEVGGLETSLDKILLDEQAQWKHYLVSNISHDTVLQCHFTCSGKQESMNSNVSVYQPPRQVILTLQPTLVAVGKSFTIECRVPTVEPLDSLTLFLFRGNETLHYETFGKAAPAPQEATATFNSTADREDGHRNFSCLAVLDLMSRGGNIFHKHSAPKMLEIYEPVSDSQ

T3: HIV-1 nef (HIV-1, UniProt P04601 1-206)
T3 sequence: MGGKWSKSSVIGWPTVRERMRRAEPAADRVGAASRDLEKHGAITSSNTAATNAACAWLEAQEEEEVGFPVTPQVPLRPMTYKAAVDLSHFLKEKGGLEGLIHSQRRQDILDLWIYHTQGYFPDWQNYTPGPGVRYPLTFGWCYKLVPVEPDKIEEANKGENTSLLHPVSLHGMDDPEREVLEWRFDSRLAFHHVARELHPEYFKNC

T4: ICAM-3 (UniProt P32942 30-485, limits assumed)
T4 sequence (looked up): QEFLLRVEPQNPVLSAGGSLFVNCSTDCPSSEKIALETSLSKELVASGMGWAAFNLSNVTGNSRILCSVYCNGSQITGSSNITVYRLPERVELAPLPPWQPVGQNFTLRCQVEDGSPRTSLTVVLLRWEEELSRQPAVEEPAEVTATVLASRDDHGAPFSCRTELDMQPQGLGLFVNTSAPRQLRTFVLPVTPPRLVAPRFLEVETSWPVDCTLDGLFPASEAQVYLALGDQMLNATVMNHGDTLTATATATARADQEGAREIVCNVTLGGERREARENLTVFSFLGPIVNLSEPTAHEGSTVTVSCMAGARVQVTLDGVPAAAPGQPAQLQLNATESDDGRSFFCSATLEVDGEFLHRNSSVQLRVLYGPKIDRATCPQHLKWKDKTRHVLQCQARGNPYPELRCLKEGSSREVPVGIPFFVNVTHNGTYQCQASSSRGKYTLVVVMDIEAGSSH

B1: H.8-azurin (H.8 epitope of Laz fused in frame to the N-terminal part of P. aeruginosa azurin) (other)
chain: CSQEPAAPAAEATPAGEAPASEAPAAEAAPADAAEAPAAAECSVDIQGNDQMQFNTNAITVDKSCKQFTVNLSHPGNLPKNVMGHNWVLSTAADMQGVVTDGMASGLDKDYLKPDDSRVIAHTKLIGSGEKDSVTFDVSKLKEGEQYMFFCTFPGHSALMKGTLTLK
notes: also called H.8-Paz; H.8-paz
B2: azurin from Pseudomonas aeruginosa (other)
chain: AECSVDIQGNDQMQFNTNAITVDKSCKQFTVNLSHPGNLPKNVMGHNWVLSTAADMQGVVTDGMASGLDKDYLKPDDSRVIAHTKLIGSGEKDSVTFDVSKLKEGEQYMFFCTFPGHSALMKGTLTLK
notes: Recombinant cupredoxin (copper protein) expressed in E. coli JM109 from pUC19-paz; also called wt azurin; wt-azurin
B3: Pf MSP1-19, C-terminal fragment of the P. falciparum merozoite surface protein MSP1 (other)
chain: NISQHQCVKKQCPENSGCFRHLDEREECKCLLNYKQEGDKCVENPNPTCNENNGGCDADATCTEEDSGSSRKKITCECTKPDSYPLFDGIFCS
notes: domain: MSP1-19; Immobilised on CM5 sensor chips
B4: DC-SIGN (DC-specific intercellular adhesion molecule 3-grabbing nonintegrin) (receptor, UniProt Q9NNX6 62-404, looked up)
chain: KVPSSISQEQSRQDAIYQNLTQLKAAVGELSEKSKLQEIYQELTQLKAAVGELPEKSKLQEIYQELTRLKAAVGELPEKSKLQEIYQELTWLKAAVGELPEKSKMQEIYQELTRLKAAVGELPEKSKQQEIYQELTRLKAAVGELPEKSKQQEIYQELTRLKAAVGELPEKSKQQEIYQELTQLKAAVERLCHPCPWEWTFFQGNCYFMSNSQRNWHDSITACKEVGAQLVVIKSAEEQNFLQLQSSRSNRFTWMGLSDLNQEGTWQWVDGSPLLPSFKQYWNRGEPNNVGEEDCAEFSGNGWNDDKCNLAKFWICKKSAASCSRDEEQFLSPAPATPNPPPA
notes: Immobilised on a CM5 sensor chip
B5: Laz from Neisseria gonorrhoeae F62 (other)
chain: CSQEPAAPAAEATPAGEAPASEAPAAEAAPADAAEAPAAGNCAATVESNDNMQFNTKDIQVSKACKEFTITLKHTGTQPKASMGHNLVIAKAEDMDGVFKDGVGAADTDYVKPDDARVVAHTKLIGGGEESSLTLDPAKLADGDYKFACTFPGHGALMNGKVTLVD
notes: also called Neisserial Laz protein
B6: H.8-GST (H.8 epitope fused in the N-terminal of GST) (other)
chain: CSQEPAAPAAEATPAGEAPASEAPAAEAAPADAAEAPAA
notes: not shown: glutathione S-transferase (GST) of the commercial pGEX-5X-3 / pET29a-gst vectors

Columns and labels:
[1] = target: B3; test: SPR (Biacore X), MSP1-19 immobilised on CM5, equilibrium response fitted to Req=Rmax/(1+(Kd/C))
[2] = target: T1, Pf MSP1-42, C-terminal fragment of the …; test: SPR (Biacore X), MSP1-42 immobilised on CM5, equilibrium response fitted to Req=Rmax/(1+(Kd/C))
ICAM-1 = ICAM-1 (UniProt P05362 28-480); test: SPR, azurin immobilised on CM5
ICAM-2 = target: T2, ICAM-2; test: SPR, azurin immobilised on CM5
HIV-1 gp41 = HIV-1 gp41 (HIV-1, UniProt P04578 512-684); test: SPR, azurin immobilised on CM5
HIV-1 gag = HIV-1 gag (HIV-1, UniProt P04591 1-500); test: SPR, azurin immobilised on CM5 (target taken from the preceding sentence)
HIV-1 nef = target: T3, HIV-1 nef; test: as above
CD4 [3] = target: T5, CD4 (UniProt P01730 26-396); test: SPR, azurin immobilised on CM5 (Az-CM5), 1 mg/ml CM5 in HBS-EP running buffer
T5 construct: Bought protein; Used both immobilised on CM5 and as eluent

CD4 [4] = target: T5, CD4; test: SPR, CD4 immobilised on CM5 (CD4-CM5), equilibrium response fitted to Req=Rmax/(1+(Kd/C))
ICAM-3 [5] = target: T4, ICAM-3; test: SPR, azurin immobilised on CM5, 1 mg/ml CM5 (carboxymethyldextran) in HBS-EP running buffer
NCAM = target: T6, NCAM (UniProt P13591 20-718); test: as above
T6 construct: also called Neural Cell Adhesion Molecule

[6] = target: B4; test: SPR, DC-SIGN immobilised on CM5, proteins injected at 0-100 nM, equilibrium response fitted to Req=Rmax/(1+(Kd/C))
[7] = target: T7, glutathione S-transferase (GST) (UniProt P08515 1-218 = GST); test: SPR, MSP1-19 immobilised on CM5
T7 construct: Control protein in the SPR experiments

[8] = target: T8, GST-Azu 36-128 (GST fused in frame to azurin amino acids 36 to 128) (Pseudomonas aeruginosa, UniProt P08515 1-218 = GST); test: SPR, MSP1-19 immobilised on CM5
T8 construct: Azurin fragment cloned into the BamHI and EcoRI sites of pGEX-5X

[9] = target: T9, GST-Azu 36-89 (GST fused in frame to azurin amino acids 36 to 89) (Pseudomonas aeruginosa, UniProt P08515 1-218 = GST); test: SPR, MSP1-19 immobilised on CM5
T9 construct: also called pGST-azu 36-89 product

[10] = target: GST-Azu 88-113 (GST fused in frame to azurin amino acids 88 to 113) (Pseudomonas aeruginosa, UniProt P08515 1-218 = GST); test: SPR, MSP1-19 immobilised on CM5, GST-Azu fusion series
[11] = target: B2; test: SPR (Biacore X), MSP1-19 immobilised on CM5, equilibrium response fitted to Req=Rmax/(1+(Kd/C))
[12] = target: B5; test: as above
ICAM-3 [13] = target: T4, ICAM-3; test: SPR, DC-SIGN immobilised on CM5, proteins injected at 0-100 nM, equilibrium response fitted to Req=Rmax/(1+(Kd/C))
[14] = target: B3; test: SPR, MSP1-19 immobilised on CM5

Sequence of ICAM-1 (P05362 28-480 limits assumed): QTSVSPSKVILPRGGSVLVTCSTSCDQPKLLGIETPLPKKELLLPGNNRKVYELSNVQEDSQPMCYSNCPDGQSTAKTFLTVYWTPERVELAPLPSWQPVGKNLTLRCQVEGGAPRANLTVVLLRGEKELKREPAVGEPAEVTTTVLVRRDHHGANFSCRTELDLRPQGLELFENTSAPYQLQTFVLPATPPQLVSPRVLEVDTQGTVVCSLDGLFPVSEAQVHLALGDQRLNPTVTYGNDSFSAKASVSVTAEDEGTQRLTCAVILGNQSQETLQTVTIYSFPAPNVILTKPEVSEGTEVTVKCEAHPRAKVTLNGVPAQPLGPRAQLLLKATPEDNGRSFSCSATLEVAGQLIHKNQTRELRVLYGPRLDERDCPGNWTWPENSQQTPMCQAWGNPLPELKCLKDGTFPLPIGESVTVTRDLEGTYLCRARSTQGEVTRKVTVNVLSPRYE
Sequence of GST-Azu 88-113 (GST fused in frame to azurin amino acids 88 to 113) (P08515 1-218, tags left off): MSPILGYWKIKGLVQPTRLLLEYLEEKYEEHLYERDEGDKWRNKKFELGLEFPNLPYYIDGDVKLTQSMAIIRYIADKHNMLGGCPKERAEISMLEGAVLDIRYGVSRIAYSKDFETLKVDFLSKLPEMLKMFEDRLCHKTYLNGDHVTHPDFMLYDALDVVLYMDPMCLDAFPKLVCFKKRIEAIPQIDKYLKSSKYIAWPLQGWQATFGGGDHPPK
T9 sequence (P08515 1-218, tags or fused parts left off): as the sequence (P08515 1-218, tags left off) above
T7 sequence (P08515 whole entry): as the sequence (P08515 1-218, tags left off) above

## B1
[1]
  Kd: 11.8 nM
[2]
  Kd: 14.3 nM

## B2
ICAM-1
  binding result: no binding
ICAM-2
  binding result: no binding
HIV-1 gp41
  binding result: no binding
HIV-1 gag
  binding result: no binding
HIV-1 nef
  binding result: no binding
CD4 [3]
  Kd: 25.1 nM
CD4 [4]
  Kd: 36.9 nM
ICAM-3 [5]
  Kd: 19.5 nM
NCAM
  Kd: 20 nM
[2]
  Kd: 54.3 nM
[6]
  Kd: 0.83 nM

## B3
[7]
  binding result: no binding (tested: 0.05-300 nM (FIG. 7 legend))
[8]
  Kd: 24.5 nM
[9]
  Kd: 20.9 nM
[10]
  binding result: no binding
[11]
  Kd: 32.2 nM
[12]
  Kd: 26.2 nM

## B4
ICAM-3 [13]
  Kd: 0.93 nM

## B5
[2]
  Kd: 45.6 nM

## B6
[14]
  binding result: no binding (tested: 0.05-300 nM (FIG. 7 legend))
